# Test results taken from publication PMC5449630.
# Where two headings read alike, the source gives them in different places.
# B1: FAM-20p ssDNA (ssDNA)
# DNA: TAGCACCTACCGATTGTATG
# modifications: 3'-phosphate
# B2: FAM-20p/36c 5' overhang duplex (dsDNA)
# DNA 1: TAGCACCTACCGATTGTATG
# DNA 2: CGACACAAAAACGTATCATACAATCGGTAGGTGCTA
# modifications: 3'-phosphate on strand 1; 5'-phosphate on strand 2
# B3: FAM-20p/20c blunt duplex (dsDNA)
# DNA 1: TAGCACCTACCGATTGTATG
# DNA 2: CATACAATCGGTAGGTGCTA
# modifications: 3'-phosphate on strand 1; 5'-phosphate on strand 2
# Legend:
# [1] = biological target: T1, mPNKP D170A (Mus musculus (murine), UniProt Q9JLV6 1-522, D170A); test: EMSA
# [2] = biological target: T1, mPNKP D170A; test: EMSA; remark: listed apart in the source
# T1 sequence (Q9JLV6 whole entry D170A): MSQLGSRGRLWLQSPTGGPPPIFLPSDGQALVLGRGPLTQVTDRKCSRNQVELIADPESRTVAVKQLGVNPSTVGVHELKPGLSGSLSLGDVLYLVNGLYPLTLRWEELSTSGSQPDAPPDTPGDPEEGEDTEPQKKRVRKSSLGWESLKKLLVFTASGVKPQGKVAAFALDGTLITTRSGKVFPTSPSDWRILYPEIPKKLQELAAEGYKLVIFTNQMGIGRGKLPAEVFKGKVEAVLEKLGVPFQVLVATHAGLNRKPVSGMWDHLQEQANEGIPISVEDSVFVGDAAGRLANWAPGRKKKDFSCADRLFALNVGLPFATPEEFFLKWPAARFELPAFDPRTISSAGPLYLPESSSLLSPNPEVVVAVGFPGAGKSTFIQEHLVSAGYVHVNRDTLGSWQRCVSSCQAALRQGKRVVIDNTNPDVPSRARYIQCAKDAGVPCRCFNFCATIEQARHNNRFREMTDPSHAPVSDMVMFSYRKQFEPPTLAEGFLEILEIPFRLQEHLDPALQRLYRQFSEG
Binder,binding result [1],binding result [2]
B1,binds,–
B2,–,binds
B3,–,binds
